Experimental data from patent publication US20180334494A1 (published 2018).
Residue numbers refer to the chain shown, from its start. Like-named read-outs stand apart in the source and are kept apart here.

B1: Fab 6 (Fab, V domains shown)
VH: EVQLVESGGGLVQPGGSLRLSCAASGFNVYYYYIHWVRQAPGKGLEWVASISPYYGYTSSYADSVKGRFTISADTSKNTAYLQMNSLRAEDTAVYYCARWSYDQSMSYKSGMDYWGQGTLVTVSS
VL: DIQMTQSPSSLSASVGDRVTITCRASQSVSSAVAWYQQKPGKAPKLLIYSASSLYSGVPSRFSGSRSGTDFTLTISSLQPEDFATYYCQQYSYSLVTFGQGTKVEIKR
B2: Fab 20 (Fab, V domains shown)
VH: EVQLVESGGGLVQPGGSLRLSCAASGFNISYSSIHWVRQAPGKGLEWVASIYSYSGYTSYADSVKGRFTISADTSKNTAYLQMNSLRAEDTAVYYCARSYWYHVGSWHYTGMDYWGQGTLVTVSS
VL: B1 VL with Y91S, Y93S, V96I

Columns and labels:
Assay in all cases: SPR
[1] = target: T1, C-terminal domain of Tai Forest Ebola virus Nucleoprotein (NP^Ct)
[2] = target: T2, C-terminal domain of Zaire Ebola virus Nucleoprotein (NP^Ct) (UniProt P18272 641-739)
[3] = target: T3, C-terminal domain of Bundibugyo Ebola virus Nucleoprotein (NP^Ct)
[4] = target: T2, C-terminal domain of Zaire Ebola virus …; remark: listed apart in the source
[5] = target: C-terminal domain of Reston Ebola virus Nucleoprotein (NP^Ct) (UniProt Q8JPY1 641-739)
[6] = target: T3, C-terminal domain of Bundibugyo Ebola …; remark: listed apart in the source
[7] = target: C-terminal domain of Sudan Ebola virus Nucleoprotein (NP^Ct) (UniProt Q9QP77 641-738)
[8] = target: T1, C-terminal domain of Tai Forest Ebola …; remark: listed apart in the source

Row | Binder | Kd [1] [nM] | Kd [2] [nM] | Kd [3] [nM] | Kd [4] [nM] | Kd [5] [nM] | Kd [6] [nM] | Kd [7] [nM] | Kd [8] [nM]
1 | B1 | 4.68 | 0.687 | 3.95 |  |  |  |  | 
2 | B2 |  |  |  | 4.14 | 11.7 | 16.6 | 20.3 | 3.05
